Experimental data taken from paper PMC11127761, “Development of a Neuropeptide Y-Sensitive Implantable Microelectrode for Continuous Measurements”.

Target: Neuropeptide Y (NPY) (UniProt P01303 29-64)
Assay: electrochemical aptasensor (SWV, steady state); 1-1000 pg/mL; best NPY response of the three aptamers; aCSF pH 7.4 (composition by citation); SWV -0.4 to 0.0 V, 30 Hz; IPA 500 Hz in flow cell; assay temperature not stated
Conditions: protein: commercial; label: 3' methylene blue; immobilized on Pt via 5' thiol

B1: Aptamer 4.31 (ssDNA)
DNA: AGCAGCACAGAGGTCAGATGCAAACCACAGCCTGAGTGGTTAGCGTATGTCATTTACGGACCTATGCGTGCTACCGTGAA
modifications: 5' thiol C6 (disulfide reduced), 3' amino linker
  binding result: binds
